Broadly, the EC50 is the concentration needed to bring the measured effect to its halfway point. What is called Kd is the concentration at which binding is half-saturated. The koff is a measure of how fast the partners let go of each other. What is called kon is the rate constant with which the complex forms.

Read-outs that look alike come from different tables or passages of the source.

The record followed here is patent US20240026024A1 (SHANGHAI HUAOTA BIOPHARMACEUTICAL, published 2024).

For test [1], the target named is T1, human CD73 on the cell surface (human, UniProt P21589 27-549).
T1 construct: also called CHOK1-huCD73-3F4 cells; human CD73-expressing cells
T1 sequence: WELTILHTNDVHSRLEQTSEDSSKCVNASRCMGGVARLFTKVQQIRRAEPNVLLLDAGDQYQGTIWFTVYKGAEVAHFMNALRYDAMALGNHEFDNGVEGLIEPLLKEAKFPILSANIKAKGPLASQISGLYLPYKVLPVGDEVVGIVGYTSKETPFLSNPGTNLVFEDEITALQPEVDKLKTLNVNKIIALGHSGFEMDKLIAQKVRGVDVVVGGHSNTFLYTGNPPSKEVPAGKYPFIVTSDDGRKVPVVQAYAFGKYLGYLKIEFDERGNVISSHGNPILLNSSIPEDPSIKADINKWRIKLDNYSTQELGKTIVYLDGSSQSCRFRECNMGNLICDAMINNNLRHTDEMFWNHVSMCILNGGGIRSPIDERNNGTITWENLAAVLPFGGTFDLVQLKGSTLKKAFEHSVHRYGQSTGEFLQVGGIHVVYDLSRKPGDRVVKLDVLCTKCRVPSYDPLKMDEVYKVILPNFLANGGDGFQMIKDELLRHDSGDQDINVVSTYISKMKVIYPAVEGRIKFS
The experiment in a line: flow cytometry on CHOK1-huCD73-3F4 cells, PE anti-human Fc. As to the method: (§1) All the antigen-binding proteins were diluted to 30 μg/ml with PBS solution containing 1% BSA (1% BSA/PBS), diluted at 3-fold into 11 gradients and then added to a 96-well U-shaped plate at 20 μL/well, and negative control (1% BSA/PBS was added only) was set up simultaneously. The suspension of human CD73-expressing cells (CHOK1-huCD73-3F4, Huabo Biopharm) in the logarithmic growth phase were collected and centrifuged at 1000 rpm for 5 min, and the culture medium was discarded; then the cells were resuspended with 1% BSA/PBS to a viable cell density of 1×10⁶/mL, and then added into the 96-well U-shaped plate already added with anti-CD73 antigen-binding protein at 20 μL (2×10⁴ cells)/well for reaction at room temperature for 30 min. […] After the reaction, the cells in the 96-well U-shaped plate were resuspended with 1% BSA/PBS and centrifuged at 300 g for 3 min and the supernatant was discarded; after washing in this manner 3 times, and the cells were finally resuspended with 1% BSA/PBS at 100 μL/well, and the fluorescence intensity of the PE channel was measured with a flow cytometer (BD, #Canto II).

The target in test [2] is T2, monkey CD73 (Novoprotein, Cat No. C121) (monkey, UniProt A0A2K5V5U7 27-549).
T2 construct: Bought protein; also called monkey CD73 protein
T2 sequence: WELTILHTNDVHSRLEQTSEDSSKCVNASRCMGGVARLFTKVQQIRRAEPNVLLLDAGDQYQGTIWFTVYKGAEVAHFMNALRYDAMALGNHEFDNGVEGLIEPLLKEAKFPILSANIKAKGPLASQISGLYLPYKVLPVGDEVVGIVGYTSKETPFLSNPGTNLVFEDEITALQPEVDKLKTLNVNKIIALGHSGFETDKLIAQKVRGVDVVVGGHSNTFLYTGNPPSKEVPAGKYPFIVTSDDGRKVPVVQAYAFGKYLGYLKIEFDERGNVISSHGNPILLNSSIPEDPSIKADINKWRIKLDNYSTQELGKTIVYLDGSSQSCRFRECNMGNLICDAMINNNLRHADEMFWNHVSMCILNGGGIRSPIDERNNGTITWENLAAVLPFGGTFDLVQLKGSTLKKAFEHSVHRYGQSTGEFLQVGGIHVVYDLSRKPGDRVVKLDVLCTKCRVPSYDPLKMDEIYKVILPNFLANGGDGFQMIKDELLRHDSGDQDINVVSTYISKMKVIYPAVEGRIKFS
Nature of the test: SPR (Biacore T200), antibody captured on protein A chip, CD73 as analyte, 1:1 model. The procedure: The temperatures of the sample chamber and flow path were set at 25° C. The protein A chips separately captured the antigen-binding proteins as ligands, which were immobilized at about 100 RU. […] Ten mM Glycine, pH 1.5, was regenerated for 60 s at a flow rate of […] for multiple cycle kinetic detection. The binding rate constant (ka), dissociation rate constant (kd) and dissociation equilibrium rate constant (KD) were fitted using the Fit local mode of a 1:1 binding model.
A general note: Surface plasmon resonance follows binding to a sensor surface in real time, without labels.

Test [3] concerns the target T1, human CD73 on the cell surface. The experiment in a line: cell-based or functional assay.
The target is the same in test [4]. Nature of the test: flow cytometry on CHOK1-huCD73-3F4 cells, PE anti-human Fc. The procedure:
as §1
This is another data set of the same source.

B1: 900695 (antibody, V domains shown)
VH: QVQLVESGGGLVKPGGSLRLSCAASGFTFSKYAMSWVRQAPGKGLEWVAEISSGGGYINYADSVTGRFTISRDNAKNSLYLQMNSLRAEDTAVYYCARAIYYYGSSYNYYAMDYWGQGTTVTVSS
VL: DIQMTQSPSSLSASVGDRVTITCRASQDVGTAEAWYQQKPGKAPKLLIYWASTRHTGVPSRFSGSGSGTDFTLTISSLQPEDFATYYCQQYSSYPLTFGQGTKLEIK
notes: Constant regions are not restated
Take B1: the response in test [1] was half-maximal at 0.594 mg/L (EC50). Moreover, in test [2], the Kd is 0.822 nM, the koff was 0.000148 s⁻¹ and the kon is 180000 M⁻¹ s⁻¹.

B2: 900698 (antibody, V domains shown)
VH: QVQLVESGGGLVKPGGSLRLSCAASGFTFSKYAMSWIRQAPGKGLEWVAEISSGGGYINYADSVKGRFTISRDNAKNSLYLQMNSLRAEDTAVYYCARAIYYYGSSYNYYAMDYWGQGTTVTVSS
VL: DIQMTQSPSSLSASVGDRVTITCRASQDVGTAEAWYQQKPGKAPKLLIYWASTRHTGVPSRFSGSGSGTDFTLTISSLQPEDFATYYCQQYSSYPLTFGQGTKLEIK
notes: as for B1
The molecule B2 returned an EC50 in test [1] of 0.688 mg/L. In test [2], the Kd is 1.41 nM, the koff is 0.000115 s⁻¹ and the kon is 108000 M⁻¹ s⁻¹.

B3: 900697 (antibody, V domains shown)
VH: QVQLVESGGGLVKPGGSLRLSCAASGFTFSKYAMSWVRQAPGKGLEWVAEISSGGGYINYADSVTGRFTISRDNAKNSLYLQMNSLRAEDTAVYYCARAIYYYGSSYNYYAMDYWGQGTTVTVSS
VL: DIQMTQSPSSLSASVGDRVTITCRASQDVGTAEAWYQQKPGKAPKLLIYWASTLQSGVPSRFSGSGSGTDFTLTISSLQPEDFATYYCQQYSSYPLTFGQGTKLEIK
notes: as for B1
For B3, the EC50 in test [1] is 0.518 mg/L. In test [2], the Kd was 2.13 nM, the koff amounted to 0.000137 s⁻¹ and the kon stood at 64100 M⁻¹ s⁻¹.

B4: 900696 (antibody, V domains shown)
VH: QVQLVESGGGLVKPGGSLRLSCAASGFTFSKYAMSWIRQAPGKGLEWVAEISSGGGYINYADSVKGRFTISRDNAKNSLYLQMNSLRAEDTAVYYCARAIYYYGSSYNYYAMDYWGQGTTVTVSS
VL: DIQMTQSPSSLSASVGDRVTITCRASQDVGTAEAWYQQKPGKAPKLLIYWASTLQSGVPSRFSGSGSGTDFTLTISSLQPEDFATYYCQQYSSYPLTFGQGTKLEIK
notes: as for B1
In test [1], B4 showed an EC50 of 0.684 mg/L. For the same molecule, in test [2], the Kd was 0.604 nM, the koff is 0.000214 s⁻¹ and the kon was 354000 M⁻¹ s⁻¹.

B5: 900581 (antibody, human IgG1, V domains shown)
VH: EVQLVESGGGLVKPGGSLKLSCAASGFTFSKYAMSWVRQSPEKRLEWVAEISSGGGYINYPDTVTGRFTISRDNAKNTLYLEMSSLRSGDTAMYYCARAIYYYGSSYNYYAMDYWGQGTSVTVSS
VL: DIVMTQSHKFMSTSVGDRVSITCKASQDVGTAEAWYQQKPGQSPKLLIYWASTRHTGVPDRFTGSGSGTDFTLTIGNVQSEDLADYFCQQYSSYPLTFGGGTKLEIK
For B5, in test [3], the “EC50(µg/mL), inhibition of enzyme activity of CD73 on CHOK1-huCD73-3F4 cells” value is 0.944 µg/mL. In test [4], this molecule yielded an EC50 of 0.426 mg/L. The molecule further gave an EC50 in test [1] of 0.347 mg/L. In addition, in test [2], the Kd amounted to 1.05 nM, the koff was found to be 0.000358 s⁻¹ and the kon turned out to be 349000 M⁻¹ s⁻¹.
